This is an account of results in the nanobody polyreactivity screen of Harvey et al. (2022).

A short description of the data set: yeast display, Sf9 membrane polyspecificity reagent, FACS + sequencing; frameworks hold sequencing errors. The method, boiled down:
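Synthetic nanobody libraries on Saccharomyces cerevisiae BJ5465 were galactose-induced for 36–48 hours, stained 1 hour at 4 °C with 10% biotinylated, detergent-solubilized Sf9 membrane reagent and enriched on streptavidin microbeads. FACS then separated cells into low and high (top ~1%) gates by anti-HA (expression) and streptavidin (reagent binding) fluorescence. Genes were colony-PCR amplified, MiSeq 2 × 250 sequenced and CDR-length filtered. A clone's polyreactivity label is that of its gate of origin.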
Take “QVQLVESGGGLVQAGGSLRLSCAASGFIFTVNAMGWYRQAPGKERELVAAITQSGGNTSYADSVKGRFTISRDNAKNTVYLQMNSLTPEDTAVYYCNASSDTSRYGVSTYYYWGQGTQVTVSS”: the “polyreactivity (PSR sort gate)” value is given as “low polyreactivity”.

On to “QVQLVESGGGLVQAGGSLRLSCAASGFIFTVYAMGWYRQAPGKERELVAAINRSGTRTTYADSVKGRFSISRDNAKNTVYIQMNSLKPEDTAVYYCAALSTGSHWQNEYGYWGQGTQVTVSS”, for which the “polyreactivity (PSR sort gate)” value is “low polyreactivity”.

With “QVQLVESGGGLVQAGGSLRLSCAASGFIFTYYAMGWFRQAPGKERELVAVISWSGGTTYYADSVKGRFTISRDNAKNTVYLQMNSLKPEDTAVFYCNARSLAKLPRSSVRVEYDYWGQGTQVTLSS”, the “polyreactivity (PSR sort gate)” value is “low polyreactivity”.

“QVQLVESGGGLVQAGGSLRLSCAASGFIFTYYAMGWYRQAPGKERELVAAISSRGGSTFYADSVKGRFTISRDNAKNTVYLQMNSLKPEDTAVYYCAADKWYAANQGYYYWGQGTQVTVSS”: the “polyreactivity (PSR sort gate)” value is given as “low polyreactivity”.

As for “QVQLVESGGGLVQAGGSLRLSCAASGFIFVAYALGWYRPAPGKERELVAAITSSGVTTYYADSVKGRFTISRDNAKNTVYLQMTSLKQDDTAVYFCAAYRRRSPFDYWGQGTQVTVSS”, the “polyreactivity (PSR sort gate)” value is “high polyreactivity”.

With “QVQLVESGGGLVQAGGSLRLSCAASGFIFVNYAMGWNRQAPGKERELVAAISARGGSTNYADSVKGRFTISRDNAKNTVYLQMNSLKPEDTAVYYCAARYTARRQSYGYWGQGTQVTVSS”, the “polyreactivity (PSR sort gate)” value was “high polyreactivity”.

As to “QVQLVESGGGLVQAGGSLRLSCAASGFIFVRNAMGWYRQAPGKEREFVAAITRSGGSTYYADSVKGRFTISRDNAKNTVYLQMNCLKPEDTAVYYCAVLYHSRDRYTYRDEDYWGQGTQVTVSS”, the “polyreactivity (PSR sort gate)” value was “low polyreactivity”.

As for “QVQLVESGGGLVQAGGSLRLSCAASGFIFVRYAMGWYRQAPGKERELVAAISWRGGSTYYADSVKGRFTISRDNAKNTVYLQMNSLKPEDTAVYYCAAVTWVHRYSRFHPFVAFDYWGQGTQVTVSS”, the “polyreactivity (PSR sort gate)” value is recorded as “high polyreactivity”.

“QVQLVESGGGLVQAGGSLRLSCAASGFIFVTNAMGWYRQAPGKERELVAAINWSGGRTYYADSVKGRFTISRDNAKNTVYLQMNSLKPEDTAVYYCAADPYARLGEYGYCGQGTQVTVSS”: the “polyreactivity (PSR sort gate)” value is given as “low polyreactivity”.

Consider “QVQLVESGGGLVQAGGSLRLSCAASGFIFWDNAMGWYRQAPGKERELVAAISRNGGRTYYADSVKGRFTISRDNAKNTVYLQMNSLKPEDTAVYYCAAYTARSYGMDYWGQGTQVTVSS”, for which the “polyreactivity (PSR sort gate)” value was “high polyreactivity”.

For “QVQLVESGGGLVQAGGSLRLSCAASGFIFWDYAMGCYRQAPGKERELVAAISDSGGDTYYADSVKGRFTLSRDNAKNTVYLQMNSLKPEDPAVYYRAADVELWVFRGQQYDYWGQGTQETVSS”, the “polyreactivity (PSR sort gate)” value was “low polyreactivity”.

For “QVQLVESGGGLVQAGGSLRLSCAASGFIFWGNTMGWYRQAPGKERELVAAISSSGGRTYYADSVKGRFTISRDNAKNTVYLQMNSLKPEDTAVYYCAKVRRSDYDSDYWGQGTQVTVSS”, the “polyreactivity (PSR sort gate)” value is listed as “high polyreactivity”.

As to “QVQLVESGGGLVQAGGSLRLSCAASGFIFWGNTMVWYRQAPGKERELVAAITYSGGSTYYADSVKGRFTISRDNAKNTVYLQMNSLKPEDTAVYYCNKVFVYRGDYWGQGSQVTVSS”, the “polyreactivity (PSR sort gate)” value is recorded as “high polyreactivity”.

On to “QVQLVESGGGLVQAGGSLRLSCAASGFIFWHYAMGWYRQAPGKERELVAAISWSGGRTYYADSVKGRFTISRDNAKNTVYLQMNSLKPEDTAVYYCARSKRVTPYEYDYWGQGTQVTVSS”, for which the “polyreactivity (PSR sort gate)” value was “high polyreactivity”.

Consider “QVQLVESGGGLVQAGGSLRLSCAASGFIFWHYTMGWYRQAPGKERELVAASTWTGGSTYYADSVKGRFTISRDNEKNTVYLQMNSLKPEETAVYYCNADYPGEGITYGYWGQGTQVTLSS”, for which the “polyreactivity (PSR sort gate)” value is reported as “low polyreactivity”.

For “QVQLVESGGGLVQAGGSLRLSCAASGFIFWPYAMGWYRQAPGKERELVAAITRSGGSTYYADSVKGRFTISRDNAKNTVYLQMNSLKPEDTAVYYCAARKRGTFTYDYWGQGTQVTVSS”, the “polyreactivity (PSR sort gate)” value is “high polyreactivity”.

In the case of “QVQLVESGGGLVQAGGSLRLSCAASGFIFWQNAMGWSRQAPGKEREWVADISWSGGGSTYYADSVKGRFTISRDNAKNTVYLQMNSLKPADTALYYCAASQVYSYYGTYYSAYDYWGQGTQVTVSS”, the “polyreactivity (PSR sort gate)” value was “low polyreactivity”.

Turning to “QVQLVESGGGLVQAGGSLRLSCAASGFIFWYNAMGWYRQAPGKERELVAAITTAGSTNYADSVKGRFTISRDNAKNTVYLQMNSLKPEDTAVYYCAAVSSYWGQGTQVTVSS”, the “polyreactivity (PSR sort gate)” value is on record as “low polyreactivity”.

On to “QVQLVESGGGLVQAGGSLRLSCAASGFIFWYYAMGWYRQSPGTERELVAGITSGGSTNYADSVKGRFTISRDNAKNTVYLQMNSLKPEDTAVYYCAAAPYGGFGRGYDYWGQGTQVTVSS”, for which the “polyreactivity (PSR sort gate)” value is listed as “high polyreactivity”.

For the sequence “QVQLVESGGGLVQAGGSLRLSCAASGFIFYAYAMGWYRQAPGKEREFVAAISARGGNTYYADSVKGRFTISRDNAKNSVYLQMNSLKPEDTAVYYCAIYGGYYYLSGYYYWGQGTQVTVSS”, the “polyreactivity (PSR sort gate)” value is “high polyreactivity”.

With “QVQLVESGGGLVQAGGSLRLSCAASGFIFYDYAMGWYRQAPGKERELVAVITSGGSTYYADSVKGRFTISRDNAKNTVYLQMNSLKPEDTAVYYCNADWVFTWYDYPNDTYDYWGQGTQVTVSS”, the “polyreactivity (PSR sort gate)” value was “low polyreactivity”.

For the sequence “QVQLVESGGGLVQAGGSLRLSCAASGFIFYDYSMAWYRQAPGKEREFVAAISWSGGRTYYADSVKGRFTISRDNAKNTVYLQMNSLKPVDTAVYYCAVDAYRYWWTTYVSDFDYWGQGTQVTVSS”, the “polyreactivity (PSR sort gate)” value was “high polyreactivity”.

In the case of “QVQLVESGGGLVQAGGSLRLSCAASGFIFYFYAMGWYRQAPGKERELVAAISSGGSTNYADSVKGRFTISRDNAQNTVYIQMNSQKPEDTAVYYCNKSGYSKYFLNDYTYWGQGTQVTVSS”, the “polyreactivity (PSR sort gate)” value is reported as “low polyreactivity”.

Consider “QVQLVESGGGLVQAGGSLRLSCAASGFIFYFYAMGWYRQAPGKERELVAAISWSGGSTYYADSVKGRFTISRDNAKNTDYLQMNSLKPEDTAVYYCAAQSWSGDSTFWRYDYWGQGTQVTVSS”, for which the “polyreactivity (PSR sort gate)” value was “low polyreactivity”.

Take “QVQLVESGGGLVQAGGSLRLSCAASGFIFYFYAMGWYRQAPWKERELVAAISSGGSTNYADSVKGRFTISRDNAKNTVYLQMISLKPEDTAVYYCARKTSSYFGHYYYWGQGTQVTVSS”: the “polyreactivity (PSR sort gate)” value is “low polyreactivity”.

For “QVQLVESGGGLVQAGGSLRLSCAASGFIFYFYTMGWYRQAPGKERELVAGITWLDGSTYYADSVKGRFTISRDNAKNTVYLQMNSLKPEDTAVYYCAVDYDLVVSPYYYWGQGTQVTVSS”, the “polyreactivity (PSR sort gate)” value is given as “low polyreactivity”.

In the case of “QVQLVESGGGLVQAGGSLRLSCAASGFIFYGYTMGWYRQAPGKERELVAAITRGGSTYYADSVKGRFTISRDNAKNTVYLQMNSLKPEDTAVYYCAALTWDGMDYWGQGTQVTVSS”, the “polyreactivity (PSR sort gate)” value is listed as “high polyreactivity”.

Take “QVQLVESGGGLVQAGGSLRLSCAASGFIFYHNAMGWYRQAPGKERELVAAISQSGGRTYYADSVKGRFTISRDNAKNTVYLQMNSLKPEDTAGYYCAKRTRVYHPTYDYWGQGTQVTVSS”: the “polyreactivity (PSR sort gate)” value is listed as “high polyreactivity”.

On to “QVQLVESGGGLVQAGGSLRLSCAASGFIFYHYAMGWYRQAPGKARELVAAISGRGGSTYYADSVKGRFTISRDNAKNTVYLQMNSLKPEDTAVYYCATDRQRADYYWGQGTQVTVSS”, for which the “polyreactivity (PSR sort gate)” value is listed as “high polyreactivity”.

Consider “QVQLVESGGGLVQAGGSLRLSCAASGFIFYHYVLGWYRQAPGKERELVAAITRGGSTYADSVKGRFTISRDNAKNTVYLQMNSLKPEDTAVYYCNADYPFSYFTRLMDYWGQGTQVTVSS”, for which the “polyreactivity (PSR sort gate)” value is reported as “low polyreactivity”.

For the sequence “QVQLVESGGGLVQAGGSLRLSCAASGFIFYIYAMGWYRQAPGKERELVAAITSGGSTYYADSVKGRFTISRDNAKNTVYLQMNSLKPEDTAVYFCAAESYYGYDYWGQGTQVTLSS”, the “polyreactivity (PSR sort gate)” value is given as “low polyreactivity”.

In the case of “QVQLVESGGGLVQAGGSLRLSCAASGFIFYKNAMGWSRQAPGKEREFVAAITWSGGNTYYADSVKGRFTISRDNAKNTVYLQLNSLKPEETAVYYCAARDSKWGQGTQVTVSS”, the “polyreactivity (PSR sort gate)” value is listed as “low polyreactivity”.

As to “QVQLVESGGGLVQAGGSLRLSCAASGFIFYKNAMGWYRQAPGKERELVAAISASGVRTYYADSVKGRFTISRDNAKNTVYLQMNSLKPEDTAVYYSAADYTPEYYWGQGTQVTVSS”, the “polyreactivity (PSR sort gate)” value was “high polyreactivity”.

With “QVQLVESGGGLVQAGGSLRLSCAASGFIFYKYAMGWYRQAPGKERELVAAITASGGSTYYADSVKGRFTISRDNEKITVYLQMNSLKPEDTEVYFCAASRLFGFDYWGQGTQVTVSS”, the “polyreactivity (PSR sort gate)” value was “high polyreactivity”.

Consider “QVQLVESGGGLVQAGGSLRLSCAASGFIFYLYAMGWSRQAPGKERELVASINVSGASTRYADSVKGRFTISRDNAKNTVYLQMNSLKPEDTAVYYCAAPSRYDYWGQGTQVTVSS”, for which the “polyreactivity (PSR sort gate)” value was “low polyreactivity”.

Turning to “QVQLVESGGGLVQAGGSLRLSCAASGFIFYNAMGWYRQAPGKESELVAAITGSGGRTYYADSVKGRFTISRDNAKNTVYLQMNSLKPEDTAVYYCAADGYVRTVTSGWALRMGYWGQGTQVTVSS”, the “polyreactivity (PSR sort gate)” value is “high polyreactivity”.

Turning to “QVQLVESGGGLVQAGGSLRLSCAASGFIFYNYAMGWYRQAPGKERELVAAISKSGDSTYYADSVKGRFTISRDNAKNTVYLQMNSLKPEDTAVYYCNKEIVWHLWYESWGQGTQVTVSS”, the “polyreactivity (PSR sort gate)” value is reported as “high polyreactivity”.

For the sequence “QVQLVESGGGLVQAGGSLRLSCAASGFIFYQYAMGWYRQAPGKERELVAAISTRGGSTYYADSVKGRFTISRDNAKNTVYLQMNSLKPEDTAVYYCAATVNARRVTRRYYWGQGTQVTVSS”, the “polyreactivity (PSR sort gate)” value is reported as “high polyreactivity”.

Take “QVQLVESGGGLVQAGGSLRLSCAASGFIFYQYAMGWYRQAPGKERELVAAITSRGGRTYYADSVKGRFTISRDNAKNTVYLQMNSLKPEDTAVYYCAVRKASDYYYWGQGTQVTVSS”: the “polyreactivity (PSR sort gate)” value is recorded as “high polyreactivity”.

For “QVQLVESGGGLVQAGGSLRLSCAASGFIFYRNAMGWYRQAPGKERELVAGISRSGTRTYYADSVKGRFTISRDYSKNTVYLQMNSLKPEDTAVYYCAADRSLGYDYWGQGTQVTVSS”, the “polyreactivity (PSR sort gate)” value is on record as “high polyreactivity”.

Consider “QVQLVESGGGLVQAGGSLRLSCAASGFIFYRNPMGWYRQAPGKEREFVAAIRGRGGATYYADSVKGRFTISRDNAKITVYLQMNSLKREDTAVYYCAADTRPGYSGFEYWGQGTQVTVSS”, for which the “polyreactivity (PSR sort gate)” value was “high polyreactivity”.
